Experimental data from article PMC7864924, “Structures of active-state orexin receptor 2 rationalize peptide and small-molecule agonist recognition and receptor activation” (Nature Communications, 2021).
Positions count from the first letter of the chain named.

B1: 8 (VHH)
VHH: QVQLVESGGGLVQAGGSLRLSCAASGFPVKHREMYWYRQAPGKEREWVAAIVSKGNVTEYADSVKGRFTISRDNAKNTVYLQMNSLKPEDTAVYYCNVKDYGWWNAHYDYWGQGTQVTVS
B2: 14 (VHH)
VHH: B1 VHH with E33H, V52A, K54N, N56H, V57R, W103F, W104Y, N105L, A106W
B3: 11 (VHH)
VHH: B1 VHH with K30A, Y35F, V52T, N56S, V57Q, E59A, N105T, H107V
B4: 1 (VHH)
VHH: QVQLVESGGGSVQAGGSLRLSCAASGWIQTITYLGWFRQAPGKEREGVAALVTNEGNTYYADSVKGRFTVSLDNAKNTVYLQMNSLKPEDTALYYCAAASWGFVTPLWYYYTYWGQGTQVTVS
B5: 19 (VHH)
VHH: QVQLVESGGGLVQAGGSLRLSCAASGFPVMENTMYWYRQAPGKEREWVAAIDSYGYYTYYADSVKGRFTISRDNAKNTVYLQMNSLKPEDTAVYYCNVKDVGDHWWFYDYWGQGTQVTVS
B6: 27 (VHH)
VHH: QVQLVESGGGLVQAGGSLRLSCAASGFPVTTRSMYWYRQAPGKEREWVAAIASNGRLTAYADSVKGRFTISRDNAKNTVYLQMNSLEPEDTAVYYCEVFVGYYYHGQGTQVTVS
B7: 34 (VHH)
VHH: B6 VHH with T30N, T31N, N54S, R56F, L57T, E87K, F99V, Y103W
B8: 5 (VHH)
VHH: QVQLVESGGGSVQAGGSLRLSCAASGYISGIEYLGWFRQAPGKEREGVAALYTFEGTTYYADSVKGRFTVSLDNAKNTVYLQMNSLKPEDTALYYCAAAKYGEWGPLWFHEYWYWGQGTQVTVS
B9: 2 (VHH)
VHH: QVQLVESGGGLVQAGGSLRLSCAASGFPVYRAFMAWYRQAPGKEREWVAAIHSTGWWTHYADSVKGRFTISRDNAKNTVYLQMNSLKPEDTAVYYCHVWVGYTYIGQGTQVTVS
B10: 18 (VHH)
VHH: QVQLVESGGGLVQAGGSLRLSCAASGFPVNTAHMYWYRQAPGKEREWVAAIASSGDMTLYADSVKGRFTISRDNAKNTVYLQMNSLKPEDTAVYYCNVKDWGWWYVAYDYWGQGTQVTVS
B11: 9 (VHH)
VHH: QVQLVESGGGLVQAGGSLRLSCAASGFPVKQHHMYWYRQAPGKEREWVAAIESGGKETRYADSVKGRFTISRDNAKNTVYLQMNSLKPEDTAVYYCNVKDWGWWWTNYDYWGQGTQVTVS
B12: 12 (VHH)
VHH: B11 VHH with K30Y, Q31T, H32A, H33Y, G54Q, K56Q, E57H, R59I, T106L
B13: 16 (VHH)
VHH: B10 VHH with N30A, T31R, A32W, A52N, S54T, W104Y, Y105W, A107N
B14: 17 (VHH)
VHH: B11 VHH with K30V, Q31G, H32W, E52N, G54S, E57K, R59L, W101A, W104F, T106Y
B15: 6 (VHH)
VHH: QVQLVESGGGSVQAGGSLRLSCAASGNISAIGYLGWFRQAPGKEREGVAALVTWFGKTYYADSVKGRFTVSLDNAKNTVYLQMNSLKPEDTALYYCAAATYGNKNPLTDSYYSYWGQGTQVTVS
B16: 3 (VHH)
VHH: QVQLVESGGGLVQAGGSLRLSCAASGFPVNWKSMAWYRQAPGKEREWVAAISSFGWYTEYADSVKGRFTISRDNAKNTVYLQMNSLKPEDTAVYYCWVKVGATYYGQGTQVTVS
B17: 35 (VHH)
VHH: B16 VHH with N30R, F54Y, W56F, Y57W, W97I, K99H, A102V, T103S, Y105R
B18: 21 (VHH)
VHH: B16 VHH with N30K, S33T, F54W, W56L, W97L, K99Q, A102V, Y105H, Q107H
B19: 37 (VHH)
VHH: B16 VHH with N30W, W97A, K99Y, A102S, T103Y, Y105W, Q107R
B20: 29 (VHH)
VHH: B16 VHH with N30K, S33T, F54W, W56L, T91S, W97Y, K99G, T103G, Y105R
B21: 28 (VHH)
VHH: B16 VHH with N30V, S33T, A35W, F54Y, K65N, W97A, K99L, A102Y, Y105E
B22: 39 (VHH)
VHH: B16 VHH with N30K, F54W, W97Y, K99Y, A102H, Y105H
B23: 23 (VHH)
VHH: B16 VHH with N30V, S33Q, F54W, K87N, W97F, A102D, T103G, Y105T
B24: 22 (VHH)
VHH: QVQLVESGGGLVQAGGSLRLSCAASGFPVYKHTMYWYRQAPGKEREWVAAINSTGAETAYADSVKGRFTISRDNAKNTVYLQMNSLKPEDTAVYYCEVYVGWFYHGQGTQVTVS
B25: 26 (VHH)
VHH: B24 VHH with Y30A, K31H, H32F, T33V, N52S, A56Y, E57N, W102Y
B26: 32 (VHH)
VHH: B6 VHH with T30A, T31E, R32K, R56V, E87K, F99Y, Y103F
B27: 25 (VHH)
VHH: B24 VHH with Y30N, K31N, T33V, N52S, T54Q, W102Y
B28: 30 (VHH)
VHH: B24 VHH with Y30K, K31T, H32Y, N52E, A56R, E57Y, W102F
B29: 33 (VHH)
VHH: B24 VHH with Y30D, H32A, T33H, N52D, A56S, E57Y, A59H, W102Y, F103M
B30: 38 (VHH)
VHH: B24 VHH with K31T, H32N, N52T, T54S, A56H, E57N
B31: 36 (VHH)
VHH: B24 VHH with Y30N, K31T, N52T, T54N, A56Q, E57S, Y99R, W102Y
B32: 31 (VHH)
VHH: B24 VHH with Y30T, K31E, H32N, N52T, T54N, A56S, E57Q, W102Y
B33: 24 (VHH)
VHH: B24 VHH with Y30D, K31A, H32Y, T33V, N52A, T54Q, A56H, E57P, S63P, W102Y
B34: 10 (VHH)
VHH: QVQLVESGGGLVQAGGSLRLSCAASGFPVETRHMYWYRQAPGKEREWVAAIQSEGYLTHYADSVKGRFTISRDNAKNTVYLQMNSLKPEDTAVYYCNVKDIGWLWVHYDYWGQGTQVTVS
B35: 20 (VHH)
VHH: QVQLVESGGGLVQAGGSLRLSCAASGFPVKTNKMAWYRQAPGKEREWVAAITSYGSWTVYADSVKGRFTISRDNAKNTVYLQMNSLKPEDTAVYYCAVWVGALYIGQGTQVTVS
B36: 4 (VHH)
VHH: QVQLVESGGGSVQAGGSLRLSCAASGAINHIWYLGWFRQAPGKEREGVAALYTWTGWTYYADSVKGRFTVSLDNAKNTVYLQMNSLKPEDTALYYCAAAYFGFASPLRARRYEYWGQGTQVTVS

molecular target: engineered OX2R carrying an additional amino-terminal Avi-tag, biotinylated (Homo sapiens, UniProt O43614, residues V261–A291 deleted, biotin on the Avi-tag (BirA biotin-protein ligase))

Binding result, binds:
B1, B2, B3, B4, B5, B6, B7, B8, B9, B10, B11, B12, B13, B14, B15, B16, B17, B18, B19, B20, B21, B22, B23, B24, B25, B26, B27, B28, B29, B30, B31, B32, B33, B34, B35, B36
